Read-outs that look alike come from different tables or passages of the source.

The target in series [1] is Chaetomium thermophilum Mic60 excluding the TM region (residues 208 to 691) (Chaetomium thermophilum). Briefly: native gel or EMSA. For orientation: Mobility shift assays separate free from complexed probe on a gel.
The target is the same in series [2]. Briefly: native gel or EMSA. The source holds these as a separate data set.
Series [3] has as its target ctMic60sol V455D/F461D (Chaetomium thermophilum). Briefly: ITC. For orientation: Isothermal titration calorimetry measures the heat released or taken up as one component is titrated into another.
Series [4] addresses ctMic60sol L676D (Chaetomium thermophilum). Briefly: native gel or EMSA.
For series [5], the target named is ctMic60sol R525C (Chaetomium thermophilum). Nature of the series: native gel or EMSA.
The series “crystal structure” concerns the molecule itself. Briefly: crystal structure.

As for “Chaetomium thermophilum Mic60 excluding the TM region (residues 208 to 691) (domain or fragment)”, the stoichiometry N (commonly a count of units in the complex or per binding partner) stood at 4 in series [1] and 2 in series [2].

As to “Chaetomium thermophilum Mic19 (natural protein)”, the fold reduction of affinity against ctMic60sol in series [3] was 30 fold.

ctMic60sol L676D (domain or fragment) had a stoichiometry N in series [4] of 2.

Regarding ctMic60sol R525C (domain or fragment), the stoichiometry N in series [5] is 4.

B1: Mic60 coiled-coil domain from Lachancea thermotolerans (amino acids 207 to 382) (domain or fragment, UniProt C5E325 207-382, looked up)
chain: NEDIRTNVAESVAVQYGQASKDLHESFEIRAKSREVELTQQFLNEFNAFKAQLEKHSSEELASALKANEQALLAKQSNEVALLSMKQVEEFTKILSEKLDQERQGRLSKLEALNGSVQELAEAVDQVDTLVMKSEVLSQLSLLTTLLKNKLHAGDESSVKIDSELARLKTLCDILP
Regarding B1, the “stoichiometry N” value in the series “crystal structure” is 4.

The record behind these values is paper PMC9432830 (Science Advances, 2022).
